Data on 21 sequences can be found in the supplement of paper PMC9170038.

In the data set the test system is K4 kissing-loop RNA reporter. In words: apparent KD of K4 kissing-loop reporter; higher = weaker reporter binding. The note with it: Eterna round: R107. The procedure: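 RNA-MaP round R107: designed RNA switches with theophylline, tryptophan, arginine or FMN aptamers are transcribed on-chip within common flanks. They are titrated with a labelled K4 kissing-loop RNA reporter in RNA-MaP buffer (100 mM Tris pH 7.5, 80 mM KCl, 4 mM MgCl2), without ligand or with the indicated ligand. Median apparent KD per design.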

Setting [1] is: input ligand: theophylline 20 uM.
Where [2] appears, read: input ligand: tryptophan 2.4 mM.
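Note: bound reporter read as fluorescence of individual clusters on recovered sequencing chips by microscopy, with normalized cluster intensities fitted with a binding model.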

With “UGACUGGAUGGAAGGAGCGCUAAACUCCUAGUGAUGUUAGGGAUACGAGACAAAGUCUUGAGGCAGGUAGGUCGCCAUCUAGUCU [FiskerMod 11 - Jieux - Same State - Arginine B]”, the “apparent KD of K4 kissing-loop reporter” value came out at 162 nM (input ligand: FMN 200 uM); 130 nM (input ligand: arginine 13.2 mM); 147 nM (input ligand: none); 157 nM under setting [1]; 138 nM under setting [2].
For the sequence “AAGCAGUCACUCGAAUCCAUCGAAGAUGGACGAGGACCGGUACGGCCGCCACUCGGAGUGAUGUUCCGAAGACUGCAAAAUAAAA”, the “apparent KD of K4 kissing-loop reporter” value (input ligand: FMN 200 uM) stood at 306 nM; the “apparent KD of K4 kissing-loop reporter” value (input ligand: arginine 13.2 mM) turned out to be 246 nM; the “apparent KD of K4 kissing-loop reporter” value (input ligand: none) amounted to 342 nM; the “apparent KD of K4 kissing-loop reporter” value under setting [1] came out at 345 nM; the “apparent KD of K4 kissing-loop reporter” value under setting [2] stood at 482 nM.
As to “AUUUAUUACAGAAGGAGCGUGUAUUUAUAAUCAUUUAUCUUAGCGAGUGAUGUUCGCUUUACACAGGUAGGUCGCUGUUUAUUUA [JR_Nu_ExcArginiB_Sub027]”, the “apparent KD of K4 kissing-loop reporter” value runs as follows: (input ligand: FMN 200 uM) 110 nM; (input ligand: arginine 13.2 mM) 128 nM; (input ligand: none) 120 nM; under setting [1], 133 nM; under setting [2], 90.2 nM.
The corresponding values for “AAGCAGUCACUCUAAGCCAUCGAAGAUGGUCGAGGACCGGUACGGCCGCCACUCGGAGUGAUGUUCCGAAGACUGCAAAAUAAAA” are 410 nM, 393 nM, 468 nM, 459 nM and 249 nM.
On to “UUGCAAAAGUCGGCCGCCACUCCGGGCCCUAUAAAUGGGCGCAGUGAUGUUGCGGCUAGGCCUCUGAGGACCGGGACUUUGUAGC [Aenonlebe]”, for which the “apparent KD of K4 kissing-loop reporter” value (input ligand: FMN 200 uM) came out at 79 nM; the “apparent KD of K4 kissing-loop reporter” value (input ligand: arginine 13.2 mM) was determined as 103 nM; the “apparent KD of K4 kissing-loop reporter” value (input ligand: none) came out at 142 nM; the “apparent KD of K4 kissing-loop reporter” value under setting [1] was found to be 111 nM; the “apparent KD of K4 kissing-loop reporter” value under setting [2] was found to be 199 nM.
Take “AACUAUUAAUGAAUUACAUUUUAUUUUUCUCGAGGACCGGUACGGCCGCCACUCGUACUAUAGUGAUGUUAUAGAUAAGUCCUAA [JR_ExcTryptoA_Sub021]”: the “apparent KD of K4 kissing-loop reporter” value (input ligand: FMN 200 uM) stood at 118 nM; the “apparent KD of K4 kissing-loop reporter” value (input ligand: arginine 13.2 mM) was 184 nM; the “apparent KD of K4 kissing-loop reporter” value (input ligand: none) turned out to be 134 nM; the “apparent KD of K4 kissing-loop reporter” value under setting [1] is 177 nM; the “apparent KD of K4 kissing-loop reporter” value under setting [2] was 71.3 nM.
Turning to “UAACUGAAGUGAUGUUUCAGUUCGUCGGAUACCAGUGCCGAUCAUCACCCUUGGCAGCCGUAAUAUUACUUAACAAUGACAGGUU [theeternabot_exclusion_KL_Theo_A_7]”, the “apparent KD of K4 kissing-loop reporter” value is, setting by setting: (input ligand: FMN 200 uM) 122 nM; (input ligand: arginine 13.2 mM) 107 nM; (input ligand: none) 118 nM; under setting [1], 119 nM; under setting [2], 108 nM.
Consider “AGUAGGAAACUACAAUCCUCUCUUACUGAAGGAGCGCGUGAAAACGCAGGUAGGUCGCAGGAUUGGAGAGUGAUGUUCUCCUUAA [Ex Arginine A K4 17]”, for which the “apparent KD of K4 kissing-loop reporter” value (input ligand: FMN 200 uM) was 311 nM; the “apparent KD of K4 kissing-loop reporter” value (input ligand: arginine 13.2 mM) came out at 331 nM; the “apparent KD of K4 kissing-loop reporter” value (input ligand: none) stood at 441 nM; the “apparent KD of K4 kissing-loop reporter” value under setting [1] amounted to 413 nM; the “apparent KD of K4 kissing-loop reporter” value under setting [2] stood at 320 nM.
With “GAUUAUUAUUCUAAAUAACAUUAUUCAGAAGGAGCGUGUUUGUACACAGGUAGGUCGCUGAAUGCUAAGCCAGUGAUGUUGGUAA [JR_SSArginiA_Sub001]”, the “apparent KD of K4 kissing-loop reporter” value reads like this: (input ligand: FMN 200 uM) 154 nM; (input ligand: arginine 13.2 mM) 206 nM; (input ligand: none) 203 nM; under setting [1], 191 nM; under setting [2], 128 nM.
For “UUUAGAUGAAGUGAUACCAGACUUGAAAGUGAUGUUUUCCAAUAAUUUAAAUUAUUAGCUGUCCCUUGGCAGCACAGUUUAUUUA [JR_ExcTheophyB_Sub008]”, in that order: 229 nM, 326 nM, 282 nM, 346 nM and 193 nM.
Consider “AAACUUGCAGUGAUGUUGCAAGUAGGUGAUACCAGCAUCGAAAGAUGCCCUUGGCAGCACCAUCUUGUAACAUAGGUAUCACCAA [(H1)-(H2)-(T1)-(T2)-(H)'-(T)'_Design4]”, for which the “apparent KD of K4 kissing-loop reporter” value was 208 nM (input ligand: FMN 200 uM); 208 nM (input ligand: arginine 13.2 mM); 194 nM (input ligand: none); 326 nM under setting [1]; 225 nM under setting [2].
“GUGGGCAUAGCAGGAUAUCCAUAUUAACAGGAGUCCUCGCCAGUGAUGUUGGAAAGGUACCGGAGUGGAGAAGGGCUCCUACGUA [Anbiratien]”: the “apparent KD of K4 kissing-loop reporter” value by setting is: (input ligand: FMN 200 uM) 594 nM; (input ligand: arginine 13.2 mM) 782 nM; (input ligand: none) 813 nM; under setting [1], 757 nM; under setting [2], 515 nM.
With “UGACUGGACUGAAGGAGCGCUGAAGGAGCGUAAGUAGUGAUGUUGCUUACAGGUAGGUCGCAGCAGGUAGGUCGCAGUCUAGUCU”, the “apparent KD of K4 kissing-loop reporter” value (input ligand: FMN 200 uM) was 45.3 nM; the “apparent KD of K4 kissing-loop reporter” value (input ligand: arginine 13.2 mM) amounted to 37.1 nM; the “apparent KD of K4 kissing-loop reporter” value (input ligand: none) came to 56.6 nM; the “apparent KD of K4 kissing-loop reporter” value under setting [1] was 44.3 nM; the “apparent KD of K4 kissing-loop reporter” value under setting [2] worked out at 43.7 nM.
Consider “UGUACCGAGUCAGGAUAUCAUAAUAAUGCAGUGAUGUUGCAAUAACGACUGACAAAGUCGGUCGAUUGAGAAGGGACUUGGUACU [FmnBS 6 #SwitchBubble #StaticStem]”, for which the “apparent KD of K4 kissing-loop reporter” value is, setting by setting: (input ligand: FMN 200 uM) 127 nM; (input ligand: arginine 13.2 mM) 118 nM; (input ligand: none) 129 nM; under setting [1], 110 nM; under setting [2], 126 nM.
“AAAUAAAGGGCGGCCGCCACUGAUCGCCUCCGCGUGGGUAUGUAGUGAUGUUAUAUGGCCGCCAUCAGGACCGGGCCAAAUAAAA [#10 K4 Tryptophan B Same State]”: the “apparent KD of K4 kissing-loop reporter” value stood at 214 nM (input ligand: FMN 200 uM); 187 nM (input ligand: arginine 13.2 mM); 340 nM (input ligand: none); 272 nM under setting [1]; 193 nM under setting [2].
Turning to “AAUAGAUCAUUAUAGUGAUAAAUGCCUGAUACCAGUGAGAGAUGGCACCCUUGGCAGCAGAGAUGAGUGAUGUUCAGACUGUAAA [theeternabot_sameState_KL_Theo_A_11]”, the “apparent KD of K4 kissing-loop reporter” value (input ligand: FMN 200 uM) is 114 nM; the “apparent KD of K4 kissing-loop reporter” value (input ligand: arginine 13.2 mM) was 118 nM; the “apparent KD of K4 kissing-loop reporter” value (input ligand: none) came to 104 nM; the “apparent KD of K4 kissing-loop reporter” value under setting [1] came out at 123 nM; the “apparent KD of K4 kissing-loop reporter” value under setting [2] is 91 nM.
As for “GUAUCGCUAGGAGGAUAUUCCGUUUUUCAUAGCAAUGGCUAUGCGGAGUGAUGUUCCGAUUUACCGGAAGAAGGCCUAGUGAUAC [FMN B 24]”, the “apparent KD of K4 kissing-loop reporter” value is 108 nM (input ligand: FMN 200 uM); 139 nM (input ligand: arginine 13.2 mM); 128 nM (input ligand: none); 148 nM under setting [1]; 114 nM under setting [2].
The corresponding values for “UAUCCUCGCUGAAGGAGCGAGCAUGAAGCAGUGAUGUUCCGAGCGAGUGAUGUUCGCAUAGCUCAGGUAGGUCGCAGUGGGAUUU [Same State Arginie B GF 17]” are 795 nM, 749 nM, 1030 nM, 517 nM and 530 nM.
With “AUGCGCGCGGCGGCCGCCACUCGCAUGAGAGUGAUGUUCUCGCCGUGCCCGUAAGGGCGCGGUGUGAGGACCGGGCCGGGCUGCG [#2 Same State - Tryptophan B Attempt #21 (HarryS)]”, the “apparent KD of K4 kissing-loop reporter” value is, setting by setting: (input ligand: FMN 200 uM) 70.8 nM; (input ligand: arginine 13.2 mM) 66.3 nM; (input ligand: none) 400 nM; under setting [1], 319 nM; under setting [2], 131 nM.
“UGGGAUGGGCGAGGAUAUGGUGAUGUUUGGGUUGUUAGUGAUGUUGGUGAUGCUGGUGGUGUUUGUCCAGAAGGCGCGGUUUUUU [Bdazzled 3]”: the “apparent KD of K4 kissing-loop reporter” value is, setting by setting: (input ligand: FMN 200 uM) 154 nM; (input ligand: arginine 13.2 mM) 64.1 nM; (input ligand: none) 119 nM; under setting [1], 132 nM; under setting [2], 109 nM.
With “GGUAGCAUGGCGGCCGCCACUCAUCGCCUCCCAUCGUCGGGAAGAAUAAGUGUAGUGAUGUUACAGAGGACCGGGCCAUGCUACC”, the “apparent KD of K4 kissing-loop reporter” value (input ligand: FMN 200 uM) stood at 472 nM; the “apparent KD of K4 kissing-loop reporter” value (input ligand: arginine 13.2 mM) came to 386 nM; the “apparent KD of K4 kissing-loop reporter” value (input ligand: none) is 898 nM; the “apparent KD of K4 kissing-loop reporter” value under setting [1] amounted to 494 nM; the “apparent KD of K4 kissing-loop reporter” value under setting [2] is 268 nM.
